These are literature values, as cited in US6406710B1, “Protein occlusion for delivery of small molecules” (priority 1998, dated 2002).

The conditions of the series: relatively high doses, human clinical trials.

B1: BDNF: Brain Derived Neurotrophic Factor, a neurotrophin proposed as carrier protein (protein, UniProt P23560 19-247, looked up)
Neurotrophic factor BDNF …: APMKEANIRGQGGLAYPGVRTHGTLESVNGPKAGSRGLTSLADTFEHVIEELLDEDQKVRPNEENNKDADLYTSRVMLSSQVPLEPPLLFLLEEYKNYLDAANMSMRVRRHSDPARRGELSVCDSISEWVTAADKKTAVDMSGGTVTVLEKVPVSKGQLKQYFYETKCNPMGYTKEGCRGIDKRHWNSQCRTTQSYVRALTMDSKKRIGWRFIRIDTSCVCTLTIKRGR
For the molecule B1, the tolerability entry is “well tolerated with insignificant adverse effects”.
